Source: paper PMC5658623

Molecular target: PhaPTD from Halomonas bluephagenesis TD01 (Halomonas bluephagenesis TD01)
Assay: SEC-MALS; Superdex 200 gel filtration connected to an eighteen-angle static light scattering system (DAWN HELEOS II); HBS buffer (1.5 mM Na2HPO4, 50 mM HEPS, 150 mM NaCl); sample at 1 mg/mL; 0.5 mL/min; 16°C

PhaPTD from Halomonas bluephagenesis TD01 (natural protein)
stoichiometry N: 3
